Data set [1] relates to T1, Hst-5 synthetic peptide K17R.
T1 sequence: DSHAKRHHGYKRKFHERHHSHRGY

Data set [2] concerns T2, Hst-5 synthetic peptide K17L.
T2 sequence: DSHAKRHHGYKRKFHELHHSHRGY

In data set [3] the test system is T3, Hst-5 synthetic peptide K13L.
T3 sequence: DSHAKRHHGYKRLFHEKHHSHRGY

We go through 1 substance from patent publication US20170291930.

As for “purified recombinant Sap9 (C. albicans secreted aspartic protease 9)”, the “cleavage at the C-terminal side of residue 17 by Sap9 (mass spectrometry)” value in data set [1] is given as “while the parent Hst-5 was cleaved on the C-terminal side of K17, neither K17R nor K17L showed significant cleavage at this site”; in data set [2], “while the parent Hst-5 was cleaved on the C-terminal side of K17, neither K17R nor K17L showed significant cleavage at this site”. The “cleavage site preference of Sap9 (mass spectrometry)” value in data set [3] is “K13L showed an apparent shift in cleavage site preference compared to the parent Hst-5. The fragments containing amino acids 1-12 and 13-24 had higher signals for K13L than the fragments containing amino acids 1-17 and 18-24”.
